Assay results taken from FireProtDB (doi:10.1021/bi035651x).
Several values for one entry are separate records, joined by “and”; a condition that tells them apart may be missing. Identical values can stand only once.

Conditions: Mus musculus, pH 7.4, 20 °C, Urea, Tris-HCl 20 mM, whole UniProt chain shown

B1: Adenosine deaminase wild type, P03958 (protein)
chain: MAQTPAFNKPKVELHVHLDGAIKPETILYFGKKRGIALPADTVEELRNIIGMDKPLSLPGFLAKFDYYMPVIAGCREAIKRIAYEFVEMKAKEGVVYVEVRYSPHLLANSKVDPMPWNQTEGDVTPDDVVDLVNQGLQEGEQAFGIKVRSILCCMRHQPSWSLEVLELCKKYNQKTVVAMDLAGDETIEGSSLFPGHVEAYEGAVKNGIHRTVHAGEVGSPEVVREAVDILKTERVGHGYHTIEDEALYNRLLKENMHFEVCPWSSYLTGAWDPKTTHAVVRFKNDKANYSLNTDDPLIFKSTLDTDYQMTKKDMGFTEEEFKRLNINAAKSSFLPEEEKKELLERLYREYQ
denaturant m value (CD): 0.89 kcal/mol/M and 0.77 kcal/mol/M | denaturant midpoint (higher = more stable) (CD): 6.15 M and 5.77 M | unfolding free energy (CD): 5.47 kcal/mol and 4.44 kcal/mol | denaturant m value (Fluorescence): 0.85 kcal/mol/M | denaturant midpoint (higher = more stable) (Fluorescence): 6.08 M and 5.73 M | unfolding free energy (Fluorescence): 5.17 kcal/mol and 4.87 kcal/mol
